Where “and” joins values, the source holds several entries; their conditions need not be identical. Identical values can stand only once.

The target of test [1] is T1, CCoV-HuPn-2018 S domain B (receptor-binding domain), residues 523-671, avi- and His-tagged (CCoV-HuPn-2018 (canine coronavirus)).
T1 chain: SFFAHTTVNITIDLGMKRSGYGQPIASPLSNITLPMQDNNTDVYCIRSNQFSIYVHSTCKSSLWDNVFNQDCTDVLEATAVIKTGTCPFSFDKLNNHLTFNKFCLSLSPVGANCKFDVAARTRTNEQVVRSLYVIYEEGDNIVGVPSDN
Nature of the test: BLI.

For test [2], the target named is FCoV-23 S domain B (receptor-binding domain), residues 529-677, avi- and His-tagged (FCoV-23 (feline coronavirus)). Nature of the test: BLI. In general terms: BLI is a label-free optical method that tracks binding on a fibre tip over time.

B1: canine APN-Fc ectodomain (dimeric) (Fc fusion)
chain: LAQSKPWNHYRLPKTLIPSSYNVTLRPYLTPNSNGLYTFKGSSTVRFTCKESTSMIIIHSKKLNYTNIQGQRVALRGVGGSQAPAIDRTELVEVTEYLVVHLREPLQVNSQYEMDSKFEGELADDLAGFYRSEYTENGVKKVLATTQMQAADARKSFPCFDEPAMKATFNITLIHPSNLVALSNMLPRGPSVPFTEEPNWNVTEFETTPIMSTYLLAYIVSEFKNVQENTPSNVLIRIWARPSAMDQGHGNYALRVTGPILDFFSRHYDTPYPLNKSDQIALPDFNAGAMENWGLVTYRESALLYDPQSSSIGNKERVVTVIAHELAHQWFGNLVTLEWWNDLWLNEGFASYVEYLGADYAEPTWNLKDLIVLNEVYRVMAVDALASSHPLSSPASEVNTPAQISEVFDSISYSKGASVLRMLSSFLTEDLFKKGVASYLHTFAYQNTIYLDLWNHLQWALGNQTAINLPYTVNAIMDRWILQMGFPVVTVDTTTGTLSQKHFLLDPQSNVTRPSKFNYLWIIPISSVKSGTQQAHYWMPDNAKVQNDLFKTTGDEWVLLNLNVTGYYLVNYDQNNWKKIHTQLQTDLSVIPVINRAQVIHDTFDLASAQIVPVTLALNSTLFLNQETEYMPWEAALSSLSYFKLMFDRSEVYGPMKNYLRKQVTPLFNHFEKITQNWTDHPQTLTEQYNEINAVSTACTYGVPKCKDLVSTLFAEWRKNPQNNPIYPNLRSTVYCNAIAQGGEEEWNFVWEQFRNTSLVNEADKLRSALACSTQVWILNRYLSYTLNPEFIRKQDVISTLSSIASNVIGQSLAWDFIQSNWKKLFEDYGTGSFSFSNLIQAVTRRFSTEFELQQLEQFKANNMDTGFGSGTRALEQALEKTKANIKWVKENKEAVLQWFRENSQ
A word on the Kd: it is the concentration at which binding is half-saturated. A word on the koff: it is the first-order rate constant of dissociation. A lower koff goes with slow dissociation. On to B1, for which the Kd in test [1] is 2.6 nM. In test [2], the Kd is 1.2 nM; the koff was 0.00019 s⁻¹ and 0.00018 s⁻¹.

B2: feline APN-Fc ectodomain (dimeric) (Fc fusion)
chain: DQSKPWNVYRLPKTLIPDSYNVTLRPYLTPNNKGLYVFTGTNIVRFTCKESTNIVIIHSKRLNYTSHQGHMVALSGVGGFHPQPVIVRTELVELTEYLVVHLQEPLVAGRQYEMNSEFQGELADDLAGFYRSEYMENGVKKVLATTHMQATEARKSFPCFDEPAMKATFNITIIHPNNLVALSNMLPRGPSVPFGEDPTWKVTEFETTPIMSTYLLAYIVSEFSYVETRAPSGVLIRIWARPSAINQGHGDYALKVTGPILDFFSQHYDTPYPLNKSDQIALPDFNAGAMENWGLVTYRESALLYDRQSSSSGNQERVVTVIAHELAHQWFGNLVTLEWWNDLWLNEGFASYVEYLGADFAEPTWNLKDLMVLNDVYRVMAVDALASSHPLSTPASEINTPAQISEVFDSISYSKGASVLRMLSNFLTEDLFKMGIASYLHTYKYGNTIYLNLWEHLQQVVDKQPTIKLPDTVSAIMDRWILQMGFPVITVDTQTGTISQQHFLLDPQSVVTRPSQFNYLWIVPISSVRSGSPQAHYWLPGVEKAQNDLFKTTANDWVLLNLNVTGYYLVNYDNENWKKIQTQLQTDLSVIPVINRAQVIHDAFNLASAQKVPVTLALNNTLFLIQETEYMPWQAALSSLSYFKLMFDRSEVYGPMKRYLKKQVTPLFNHFERVTKNWTDHPQTLMDQYSEINAVSTACSYGVPECEKLAATLFAQWKKNPQNNPIHPNLRSTVYCNAIAQGGEEEWNFVWEQFLKAELVNEADKLRGALACSNQVWILNRFLSYTLDPNLIRKQDVTSTLSSISSNVVGQTLVWDFVQSNWKKLFQDYGTGSFSFSNLIQAVTRRFSTEFELQQLEQFKKNNMDTGFGSATRALEQALEKTKANLKWVKENKDVVLRWFTENS
With B2, the Kd in test [1] was 28 nM. Moreover, in test [2], the Kd amounted to 10 nM; the koff was 0.0013 s⁻¹ and 0.0014 s⁻¹.

The values above are taken from publication doi:10.1101/2024.08.25.607996 (2024).
